Results: doi:10.1101/2025.07.03.663104 (bioRxiv, 2025)

Biological target: ThBP24k (recombinant, no tag named) (Magnaporthe oryzae, UniProt G4NG01)
Assay: BLI
Conditions: both partners purified

B1: OsPR5-His (natural protein)
chain: ATFTITNRCSFTVWPAATPVGGGVQLSPGQTWTINVPAGTSSGRVWGRTGCSFDGSGRGSCATGDCAGALSCTLSGQKPLTLAEFTIGGSQDFYDLSVIDGYNVAMSFSCSSGVTVTCRDSRCPDAYLFPEDNTKTHACSGNSNYQVVFCP
Kd: 2.41 nM
